{
  "source": "patent US5686592",
  "assay_in_all_cases": "filter",
  "key": {"[1]": {"tested_on": "human IgE (Homo sapiens), P01854-1", "sequence (P01854 other isoform, or with tags, fused parts or gaps)": "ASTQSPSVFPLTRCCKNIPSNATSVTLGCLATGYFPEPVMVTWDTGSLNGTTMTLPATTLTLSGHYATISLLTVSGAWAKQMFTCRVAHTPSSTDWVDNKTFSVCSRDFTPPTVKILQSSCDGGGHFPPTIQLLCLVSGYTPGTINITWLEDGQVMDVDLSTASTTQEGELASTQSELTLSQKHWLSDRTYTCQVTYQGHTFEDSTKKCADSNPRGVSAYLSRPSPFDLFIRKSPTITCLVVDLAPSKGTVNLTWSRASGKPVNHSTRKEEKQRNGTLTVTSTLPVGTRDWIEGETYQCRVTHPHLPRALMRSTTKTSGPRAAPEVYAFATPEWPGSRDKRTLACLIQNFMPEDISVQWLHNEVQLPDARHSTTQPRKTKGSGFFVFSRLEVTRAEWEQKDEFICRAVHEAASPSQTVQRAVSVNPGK"}, "mouse IgE (Mus musculus)": {"molecular_target": "T1, mouse IgE (Mus musculus) (UniProt P06336)", "T1 sequence": "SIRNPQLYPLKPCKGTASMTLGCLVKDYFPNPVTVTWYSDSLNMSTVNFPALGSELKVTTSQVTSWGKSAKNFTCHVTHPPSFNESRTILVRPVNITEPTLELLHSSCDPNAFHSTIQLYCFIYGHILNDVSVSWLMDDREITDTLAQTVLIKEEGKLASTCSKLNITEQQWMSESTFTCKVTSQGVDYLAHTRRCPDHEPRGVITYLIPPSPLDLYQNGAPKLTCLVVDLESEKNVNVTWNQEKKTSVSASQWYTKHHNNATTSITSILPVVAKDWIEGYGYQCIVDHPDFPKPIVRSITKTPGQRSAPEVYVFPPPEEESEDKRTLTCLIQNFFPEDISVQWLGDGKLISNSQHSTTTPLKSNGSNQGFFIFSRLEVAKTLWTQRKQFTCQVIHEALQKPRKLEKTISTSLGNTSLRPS"}, "[2]": {"molecular_target": "T2, rat IgE (Rattus norvegicus) (UniProt P01855)", "T2 sequence": "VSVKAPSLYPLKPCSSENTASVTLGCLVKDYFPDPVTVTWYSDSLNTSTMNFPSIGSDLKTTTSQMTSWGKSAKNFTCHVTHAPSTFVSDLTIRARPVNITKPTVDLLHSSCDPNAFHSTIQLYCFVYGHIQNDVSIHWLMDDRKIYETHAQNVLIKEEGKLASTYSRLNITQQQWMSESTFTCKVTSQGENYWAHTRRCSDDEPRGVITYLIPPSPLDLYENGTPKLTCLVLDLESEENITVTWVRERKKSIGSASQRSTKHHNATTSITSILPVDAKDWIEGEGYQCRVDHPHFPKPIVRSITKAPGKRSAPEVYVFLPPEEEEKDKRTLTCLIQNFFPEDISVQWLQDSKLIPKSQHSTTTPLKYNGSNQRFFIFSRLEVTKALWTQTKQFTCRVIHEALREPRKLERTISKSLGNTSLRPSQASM", "settings": "2'-NH2 on all C and U; specificity control"}, "human IgG (Homo sapiens)": {"tested_on": "human IgG (Homo sapiens)", "settings": "specificity control"}, "[3]": {"settings": "2'-NH2 on all C and U, specificity control"}, "[4]": {"settings": "2'-NH2 on all C and U, starting pool"}},
  "note": "pKd: −log10 of the molar value.",
  "data": [
    {"sequence": "CTACCTACGATCTGACTAGCNNNNNNNNNNNNNNNNNNNNNNNNNNNNNNNNNNNNNNNNGCTTACTCTCATGTAGTTCC [40NBHI starting DNA pool]", "values": [
      {"measurement": "pKd", "setting": "[1]; starting pool", "result": "< 4.30"},
      {"measurement": "pKd", "setting": "mouse IgE (Mus musculus); starting pool", "result": "< 6.00"}
    ]},
    {"sequence": "CTACCTACGATCTGACTAGCNNNNNNNNNNNNNNNNNNNNNNNNNNNNNNNNNNNNNNNNGCTTACTCTCATGTAGTTCC [Round 15 human IgE DNA pool]", "values": [
      {"measurement": "pKd", "setting": "[1]; enriched pool, modified PBS, 1 mM Mg2+, 37 C", "result": 8.00}
    ]},
    {"sequence": "CTACCTACGATCTGACTAGCNNNNNNNNNNNNNNNNNNNNNNNNNNNNNNNNNNNNNNNNGCTTACTCTCATGTAGTTCC [Round 15 mouse IgE DNA pool]", "values": [
      {"measurement": "pKd", "setting": "[1]; mouse-IgE-enriched pool against human IgE", "result": "< 4.30"},
      {"measurement": "pKd", "setting": "mouse IgE (Mus musculus); enriched pool", "result": 7.70}
    ]},
    {"sequence": "GGGAGGACGAUGCGGGUGUGAAUGGUGUUGUGAGG [IGEL1.2]", "values": [
      {"measurement": "pKd", "setting": "mouse IgE (Mus musculus); [3]", "result": "< 5.30"},
      {"measurement": "pKd", "setting": "[2]", "result": "< 5.30"}
    ]},
    {"sequence": "GGGAGGACGAUGCGGGUGUGGGGCG [IGEL2.2]", "values": [
      {"measurement": "pKd", "setting": "mouse IgE (Mus musculus); [3]", "result": "< 5.30"},
      {"measurement": "pKd", "setting": "[2]", "result": "< 5.30"}
    ]},
    {"sequence": "GGGAGGACGAUGCGGNNNNNNNNNNNNNNNNNNNNNNNNNNNNNNNNNNNNNNNNCAGACGACUCGCCCGA [40N7 starting RNA pool]", "values": [
      {"measurement": "pKd", "setting": "[1]; [4]", "result": "< 4.30"}
    ]},
    {"sequence": "GGGAGGACGAUGCGGNNNNNNNNNNNNNNNNNNNNNNNNNNNNNNNNNNNNNNNNNNNNNNNNNNNNNNNNNNNNCAGACGACUCGCCCGA [60N7 starting RNA pool]", "values": [
      {"measurement": "pKd", "setting": "[1]; [4]", "result": "< 4.30"}
    ]},
    {"sequence": "GGGGCACGTTTATCCGTCCCTCCTAGTGGCGTGCCCC [D17.4]", "values": [
      {"measurement": "pKd", "setting": "human IgG (Homo sapiens)", "result": "< 5.00"},
      {"measurement": "pKd", "setting": "mouse IgE (Mus musculus); specificity control", "result": "< 5.00"}
    ]}
  ]
}
